Assay results taken from patent publication US20030138848A1, “3D structure of polypeptides containing a TPR-structure motif with chaperone-binding function, crystals thereof and compounds for inhibition of said polypeptides” (priority 2000, published 2003).
Ends that are not written are not given here.

Legend:
[1] = biological target: T1, TPR1 domain of the Hop protein (Homo sapiens, UniProt P31948); assay: Isothermal titration calorimetry, binding to TPR1 domain of Hop; conditions: ITC at 25° C.
T1 construct: Codons 1-118 (TPR1) and 223-352 (TPR2A) of human Hop protein were cloned; hexahistidine (TEV-cleavable) (N, cleaved yes); made in house; host or cells: E. coli BL21 (DE3)
Method: (§1) FIG. 6 is a plotting of the thermo-dynamic analysis of the interaction of TPR1 and TPR2A with the C-terminal sequences of Hsp70 and Hsp90. […] The sequence […] corresponds with the 12 C-terminal amino acid residues of Hsc70. […] corresponds with the 12 C-terminal amino acid residues of Hsp90.
(§2) 40-50 aliquots of 5•μl peptide solution (7.5 mM-15 mM) were titrated at 25° C. by injection into a 1.36 ml TPR1 (TPR2A) solution (450•M-950•M) into the chamber. Alternatively, a solution of 3 mM TPR1 (TPR2A) in 180•M C70 (C90) solution was titrated in the chamber. […] Typically, the injections were continued past the saturation limits in order to be able to determine the heat of the ligand solution. After subtracting the solution heat, the calorimetric data was analysed, where an assessment software was used, which is provided by the manufacturer (version 2.9; MicroCal Software, Inc.).

[2] = biological target: T2, TPR2A domain of the Hop protein (Homo sapiens, UniProt P31948); assay: Isothermal titration calorimetry, binding to TPR2A domain of Hop; conditions: ITC at 25° C.
T2 construct: Codons 1-118 (TPR1) and 223-352 (TPR2A) of human Hop protein were cloned; hexahistidine (TEV-cleavable) (N, cleaved yes); made in house; host or cells: E. coli BL21 (DE3)
Method: as §1, §2

[3] = biological target: T3, TPR1 domain of human Hop protein (codons 1-118) (human, UniProt P31948 4-118); assay: ITC, 25 °C
T3 construct: Expressed in E. coli with a removable N-terminal His6 tag, which was cleaved with TEV; It could not be checked that the entry is exactly residues 1-118; also called N-terminal TPR domain of Hop
Method: as §1
(§3) 40-50 aliquots of 5•μl peptide solution (7.5 mM-15 mM) were titrated at 25° C. by injection into a 1.36 ml TPR1 (TPR2A) solution (450•M-950•M) into the chamber. Alternatively, a solution of 3 mM TPR1 (TPR2A) in 180•M C70 (C90) solution was titrated in the chamber. The peptides were dissolved in and the proteins were dialysed against the buffer G (25 mM, pH 7.5, 100 mM Kac, 5 mM MgAc₂). Typically, the injections were continued past the saturation limits in order to be able to determine the heat of the ligand solution. After subtracting the solution heat, the calorimetric data was analysed, where an assessment software was used, which is provided by the manufacturer (version 2.9; MicroCal Software, Inc.).

[4] = biological target: T4, TPR2A domain of human Hop protein (codons 223-352) (human, UniProt P31948 225-352); assay: ITC, 25 °C
T4 construct: Expressed in E. coli, His6 tag cleaved with TEV; A selenomethionine-labelled form was made for MAD phasing; also called TRP2A
Method: as §1, §3

T3 sequence (P31948 other isoform, or with tags, fused parts or gaps limits assumed): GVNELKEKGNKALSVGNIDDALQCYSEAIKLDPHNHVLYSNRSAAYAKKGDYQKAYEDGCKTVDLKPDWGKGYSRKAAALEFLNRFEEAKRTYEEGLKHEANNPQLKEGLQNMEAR
T1 sequence (P31948 1-118): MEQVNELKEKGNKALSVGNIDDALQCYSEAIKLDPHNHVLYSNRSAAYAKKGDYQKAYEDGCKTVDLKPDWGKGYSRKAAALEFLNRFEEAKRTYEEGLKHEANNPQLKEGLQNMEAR
T4 sequence (P31948 other isoform, or with tags, fused parts or gaps limits assumed): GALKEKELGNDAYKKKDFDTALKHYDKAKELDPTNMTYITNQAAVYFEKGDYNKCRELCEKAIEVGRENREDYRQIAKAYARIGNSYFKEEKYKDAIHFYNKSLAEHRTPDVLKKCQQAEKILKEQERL
T2 sequence (P31948 223-352): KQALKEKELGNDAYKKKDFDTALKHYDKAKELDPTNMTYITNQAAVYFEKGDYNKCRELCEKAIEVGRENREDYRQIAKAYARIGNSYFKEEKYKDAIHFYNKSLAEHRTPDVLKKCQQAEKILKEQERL

How did the “binding to TPR1, result in words” value [1] turn out when “GASSGPTIEEVD [Hsp70 Dodekamer, C-terminal dodecamer of Hsp70]” was run?
Its value is “same affinities”.

“C70: C-terminal fragment of human Hsp70 (codons 382-641), 25 kDa domain” was tested. Which “stoichiometry N” value ([1]; binding to TPR1, listed as 25 kDa fragment of human Hsp70) did it give?
The value was ~1.

For “GSGGPTIEEVD [Hsc70 Dodekamer, peptide of the 12 C-terminal amino acid residues of Hsc70]”, which “binding to TPR1, result in words” value [1] is on record?
Its value is “same affinities”.

Which results are given for “C90: C-terminal domain of human Hsp90 (codons 625-732), 12 kDa fragment including dimerisation domain and authentic C-terminal”?
binding to TPR1, result in words [1]: weak, non-specific binding; stoichiometry factor [2]: ~1

B1: C-terminal heptamer peptide of Hsc70 (peptide)
peptide: Ac-PTIEEVD
How did the Kd [3] turn out when B1 was run?
Its Kd is 15 to 20 µM.

B2: tetrapeptide EEVD (peptide)
peptide: Ac-EEVD
notes: also called EEVD peptide; EEVD motif
With B2 as the molecule, how does the Kd [3] read?
Its Kd is ~300 µM.

And the Kd [4]?
Its Kd is 90 µM.

B3: Hsp70 peptide GPTIEEVD (peptide)
peptide: Ac-GPTIEEVD
notes: also called structured octamer peptide
How did the “fold increase in affinity (against the EEVD motif alone)” value [3] turn out when B3 was run?
Its value is 20 fold.
